According to patent US7291332B2, “Inflammatory mediator antagonists” (SmithKline Beecham Corporation, priority 1998, dated 2007):

Columns and labels:
[1] = system: OSM-induced sPAP release, HepG2 B6 cells; assay: HepG2 B6: OSM-induced sPAP assay; format: cell-based, human
Excerpt: A HepG2 cell line (ECACC) was stably transfected with six functional STAT3 response elements (REs) upstream of sPAP (secreted placental alkaline phosphatase) cDNA as described below to form HepG2B6. STAT3 (signal transducer and activator of transcription) is an intermediate in the IL-6 cytokine family […] signalling cascade. Following dimerisation of cell surface receptors STAT3 is phosphorylated and will then bind to DNA REs in the nucleus and activate DNA downstream, in this construct that DNA is sPAP. Thus this line can be driven to produce sPAP by overnight incubation in Oncostatin M.
HepG2 B6 cells were plated into 96 well plates to a final concentration of 3×10^4 cells per well in 100 μl of media (DMEM (Sigma), 10% HI FCS, 1% non-essential amino acids, 2 mM Glutamine, 500 μg ml^−1 G418, (all from Life Technologies)). Cells were allowed to equilibrate for 48 hours. Putative anti-OSM solid compounds were made up to a stock dilution of 20 mM in DMSO and serially diluted 1:3 in DMSO. This was then further diluted in HepG26B assay media, this is as above media but with 1% heat inactivated FCS, low alkaline phosphatase activity (Life Technologies) substituted for 10% HI FCS. Compounds were diluted 1:3 from a top concentration of […] to a final concentration of 0.09 μM in a final concentration of 1% DMSO. (That is 200, 66.67, 22.22, 7.41, 2.47, 0.82, 0.27, 0.09 and 0 μM). The old media was removed from the wells and replaced with diluted compound also containing 2 ng ml^−1 OSM (R&D Systems), cells were incubated for a further 20 hours. Each dilution was performed in triplicate. 20 μl of media was removed from each well and assayed for sPAP activity using pNPP (p-Nitrophenyl phosphate; Sigma), as a substrate. Endogenous alkaline phosphatase is blocked with L-homoarginine. Optical density of substrate is read at 405-650 nm. Concentration of compound is plotted against OD as a measure of sPAP produced and can be analysed to determine IC50 values.

[2] = system: TNFα-induced sPAP release, A549 cells; assay: A549 cells: TNFα-induced sPAP assay; format: cell-based, human
Description: This assay used A549 cells that had been stably transfected with a reporter gene, comprising the cytokine responsive region of the E-selectin gene coupled to alkaline phosphatase (Ray et al., Biochem J. 328:707-715, 1997). This transfected cell line can be driven to produce sPAP by overnight incubation with TNFα.
A549 cells were plated into 96 well plates to a final concentration of 5×10^4 cells per well in […] of media. Cells were allowed to equilibrate for 24 hours. Putative anti-OSM solid compounds are made up to a stock dilution of 20 mM in DMSO and serially diluted 1:3 in DMSO. This was then further diluted in media (DMEM, 1% heat inactivated FCS, low alkaline phosphatase activity, 1% non-essential amino acids, 2 mM Glutamine, 500 μg ml^−1 G418, (all from Life Technologies), to give a concentration response of 0.09-200 μM in a final concentration of 1% DMSO. The old media was removed from the wells and replaced with diluted compound also containing 3 ng ml^−1 TNFα (R&D Systems), cells were incubated for a further 20 hours. Each dilution was performed in triplicate. 20 μl of media was removed from each well and assayed for sPAP activity using p-Nitrophenyl phosphate (Sigma), as a substrate. […] Optical density of substrate is read at 405-650 nm. Concentration of compound is plotted against OD as a measure of sPAP produced and can be analysed to determine IC50 values.

[3] = target: T1, L-selectin (Homo sapiens, UniProt P14151); assay: Stimulation of PBMC via L-selectin: OSM secretion (ELISA); format: cell-based; settings: 24 hr incubation
T1 construct: endogenous in cells; host or cells: human peripheral blood mononuclear cells (buffy coats)
T1 sequence (P14151 39-372): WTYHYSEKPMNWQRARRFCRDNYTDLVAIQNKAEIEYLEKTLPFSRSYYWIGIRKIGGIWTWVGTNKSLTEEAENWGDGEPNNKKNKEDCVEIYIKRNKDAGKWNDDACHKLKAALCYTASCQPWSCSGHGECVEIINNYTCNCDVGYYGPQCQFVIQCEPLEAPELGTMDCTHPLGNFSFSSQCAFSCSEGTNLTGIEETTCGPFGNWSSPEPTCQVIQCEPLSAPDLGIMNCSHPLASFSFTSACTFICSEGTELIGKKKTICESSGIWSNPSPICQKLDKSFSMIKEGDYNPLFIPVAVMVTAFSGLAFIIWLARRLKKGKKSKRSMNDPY
Description: Mononuclear cells were isolated from human buffy coats as described above. 5×10^5 cells were plated out in 0.5 ml volumes and incubated for 24 hr at 37° C., 5% CO2 with 60-80 kD M. wt. fucoidan (Sigma) anti-L-selectin monoclonal antibodies, LAM1-3 and TQ1 or an isotype matched control IgG antibody (all from Coulter). Supernatants were assayed for OSM using a specific ELISA assay (Quantikine, R&D Systems), according to the Manufacturer's instructions.
Mononuclear cells from healthy donors were incubated for 24 hrs with anti-human L-selectin antibodies, (either TQ1 or LAM-1), or an isotype-matched control antibody and culture supernatants assayed by ELISA for OSM. […] The ability of the L-selectin agonist fucoidan to induce OSM from mononuclear cell cultures was then investigated.

[4] = system: THP-1 cells; assay: OSM-induced TNFα production by PMA-differentiated THP-1 cells (ELISA, RT-PCR); format: cell-based, human
Description: Human pro-monocytic line THP-1 cells (ECACC) were passaged twice weekly in RPMI supplemented with 10% heat-inactivated FCS, 10 mM hepes, 1% non-essential amino acids (all from Sigma), 4 mM L-glutamine (Hyclone), 100 U/ml penicillin+100 μg/ml streptomycin (Hyclone) (complete medium, CM) and then PMA (Sigma) was added to washed cells at 1 ug/ml and Incubated at 37° C. for 30 minutes. Cells were washed ×3 in pre-warmed PBS, resuspended in CM and plated out at 1.5×10^5 cells/ml in 96-well flat bottomed plates (Costar). Plates were incubated for 48 hours at 37° C., 5% CO2, then washed with PBS, the media replaced, and incubated for a further 24 hours. Cells were washed ×1 in PBS before use.
(§1) Lyophilised, recombinant human oncostatin M (rhOSM) was purchased from R&D Systems diluted to 10 μg/ml in sterile PBS+0.1% BSA (Sigma) and aliquots stored at −20° C. until use. rhOSM, E. coli-derived LPS or CM were added to triplicate wells of macrophages, monocytes or Thp-1 cells, prepared as above and incubated for 7 hours at 37° C., 5% CO2. Supernatants were harvested and frozen at −20° C. until testing for TNFα protein by ELISA. In assays designed to co-assay for TNFα mRNA, cells were incubated as above for 4 hrs, washed once in PBS and lysed in RNA extraction buffer (RNAzole).
RNA was detected as follows. Total RNA was prepared according to the manufacturer's instructions and stored at −80° C. in DEPC-treated water. For RT-PCR, approximately 1 ug of RNA was reverse transcribed using oligo dT priming (first strand cDNA synthesis kit, Pharmacia Biotech) and the resulting cDNA subjected to 30 cycles of PCR using the following primers for TNFα (Clontech amplimers): forward—[…], (SEQ ID 1) reverse-[…] CCAGAC (SEQ ID 2). The amplified product (444 bp) was separated by agarose gel (2%) electrophoresis and visualized by ethidium bromide staining.
The human pro-monocytic line THP-1, was induced to differentiate using PMA, washed thoroughly, and incubated with recombinant human OSM as described above. Culture supernatants were removed at 8 hours and assayed for TNFα production by specific ELISA (TNF Quantikine, R&D Systems) in accordance with manufacturers instructions. OSM induced a dose-related release of TNFα, measurable above 1 ng/ml OSM and maximal at 200-500 ng/ml, routinely reaching secreted levels of greater than 2500 pg/ml TNFα.

[5] = system: human blood monocytes; assay: OSM-induced TNFα secretion by interferon-γ pre-activated blood monocytes (ELISA); format: cell-based; settings: co-incubated 8 hr with OSM, n=4 donors
Description: Human buffy coats (North London Blood Transfusion Centre) were diluted 1:3 with PBS, layered onto Lymphoprep (Nycomed UK) and centrifuged at 600×g for 30 minutes at room temperature. Harvested PBMC were washed 3 times in PBS, counted, and resuspended in 80 mls RPMI 1640/10% FCS at 5×10^6 cells/ml. 20 mls were put into each of four 175 cm^2 flasks and Incubated overnight at 37° C. to allow monocytes to adhere. Non-adherent cells were discarded and adherent cells scraped off after incubation with ice-cold versene at 4° C. for 15 minutes. Cells were washed twice in PBS, resuspended in RPMI 1640+10% heat inactivated human serum (Sigma) at 6.9×10^5/ml and 250 ul cell suspension placed into each well of 96-well flat bottomed plate (Costar). To half the plate was added 100 IU/ml IFNγ (Genzyme), the other half left as control. Plates were incubated overnight at 37° C., 5% CO2 prior to assay. […]
Importantly, TNFα induction was not due to contaminating endotoxin as pre-boiling of OSM completely ablated TNFα secretion (data not shown). […] Both cell types, when co-incubated for 8 hr with OSM, secreted TNFα, as measured by ELISA. […]

[6] = system: human blood macrophages; assay: OSM-induced TNFα secretion by blood macrophages (ELISA); format: cell-based; settings: co-incubated 8 hr with OSM, n=3 donors
Description: as §1
Importantly, TNFα induction was not due to contaminating endotoxin as pre-boiling of OSM completely ablated TNFα secretion (data not shown). Also, removal of OSM by immunoprecipitation using specific antibody abolished activity (data not shown). These findings were extended to include human blood monocytes, pre-activated with interferon-γ and human blood macrophages, differentiated in culture for 7 days. Both cell types, when co-incubated for 8 hr with OSM, secreted TNFα, as measured by ELISA. Mean TNFα secretion by monocytes was 1447 pg/ml (range 137-4709 pg/ml; n=4 donors) and 542 pg/ml by macrophages (range 62-1428 pg/ml; n=3 donors).

[7] = system: Bovine nasal cartilage; assay: Cartilage degradation assay (hydroxyproline/collagen release, MMP1)
Description: Bovine nasal septum cartilage was held at 4° C. overnight after slaughter. 2 mm diameter discs were cut from 2 mm slices and washed twice in HBSS. Three discs per well of a 24 well plate (Costar) were incubated at 37° C., 5% CO2 for 24 hrs in a 600 μl volume of DMEM (Sigma) containing 25 mM HEPES supplemented with 2 mM glutamine, 100 μg/ml streptomycin, 100 U/ml penicillin and 2.5 μg/ml amphotericin B (cartilage degradation medium, CDM). Cartilage was cultured in quadruplicate wells in either: 600 μl of CDM alone, 2, 10 or 50 ng/ml human recombinant TNFα alone, 10 ng/ml rhOSM alone (R&D systems) or TNFα+OSM and incubated for 7 days at 37° C., 5% CO2. Supernatants were harvested and replaced with fresh medium containing identical test reagents to day 1. […] The cumulative level of OH-proline released into the medium by day 14 was measured and expressed as the percentage of total released as set out below.
Hydroxyproline release was assayed (as a measure of collagen degradation) using a microtitre plate modification of the method in (Bergmann I and loxley R. (1963) Anal. Biochem. 35 1961-1965. Chloramine T (7%) w/v) was diluted 1:4 in acetate citrate buffer (57 g sodium acetate, 37.5 g tri-sodium citrate, 5.5 g citrate acid, 385 ml propan-2-ol per liter water). […] The plate was heated to 65° C. for 35 min, cooled and the absorbance at 560 nm determined. […]

Molecule: O=C(Nc1ncnc2[nH]ncc12)c1ccccc1 [GW 340442X, N-(1H-pyrazolo[3,4-d]pyrimidin-4-yl)benzamide]
- inhibition of OSM-induced sPAP release ([1]; HepG2 B6): concentration-dependent inhibition
- IC50 ([1]; Homo sapiens, HepG2, 2 ng/ml OSM, 20 hours, read-out: IC50, inhibition of OSM-induced sPAP release): 0.3 µM
- selectivity for OSM over TNFα ([1]; from sPAP IC50 values): greater than 100 fold
- inhibition of TNFα-induced sPAP release ([2]; A549 cells): limited inhibition
- IC50 ([2]; Homo sapiens, A549, 3 ng/ml TNFα, 20 hours, read-out: approx. IC50, inhibition of TNFα-induced sPAP): ~92 µM

Molecule: fucoidan
- OSM secretion by mononuclear cells [3]: powerful stimulant of OSM secretion

B1: OSM: recombinant human oncostatin M purchased from R&D Systems (protein)
chain: AAIGSCSKEYRVLLGQLQKQTDLMQDTSRLLDPYIRIQGLDVPKLREHCRERPGAFPSEETLRGLGRRGFLQTLNATLGCVLHRLADLEQRLPKAQDLERSGLNIEDLEKLQMARPNILGLRNNIYCMAQLLDNSDTAEPTKAGRGASQPPTPTPASDAFQRKLEGCRFLHGYHRFMHSVGRVFSKWGESPNRSRRHSPHQALRKGVRRTRPSRKGKRLMTRGQLPR
- Expression of TNFα message (RT-PCR) ([4]; 4 hr with 100 ng/ml OSM, relative to unstimulated control cells): strongly increased
- OSM concentration above which TNFα release is measurable ([4]; 8 hours): above 1 ng/ml
- OSM concentration at which TNFα release is maximal ([4]; 8 hours): 200 to 500 ng/mL
- secreted levels of TNFα ([4]; PMA-differentiated THP-1, supernatants at 8 hours, at maximal OSM): greater than 2500 pg/ml
- Mean TNFα secretion by monocytes [5]: 1447 pg/mL
- Mean TNFα secretion by macrophages [6]: 542 pg/mL
- collagen release ([7]; OSM alone at 10 ng/ml, day 14): did not induce collagen release
- MMP1 secretion (total collagenase activity) ([7]; day 7, OSM 10 ng/ml, TNFα 50 ng/ml): neither OSM nor TNFα alone, used at 10 ng/ml or 50 ng/ml, respectively, induced significant MMP1 secretion
